Data as given in PMC5145805, “Structural Basis for Selective Interaction between the ESCRT Regulator HD-PTP and UBAP1” (Structure(London, England:1993), 2016).
Entries after “also recorded” stand apart in the source; their conditions may differ.

T1: HD-PTPBro1-CC (Homo sapiens, UniProt Q9H3S7)
T1 construct: HD-PTPBro1-CC (1–714) was cloned into a pET28a vector with restriction sites Nde1 and Xho1; made in house; host or cells: Escherichia coli BL21(DE3)
T1 sequence (Q9H3S7 1-714): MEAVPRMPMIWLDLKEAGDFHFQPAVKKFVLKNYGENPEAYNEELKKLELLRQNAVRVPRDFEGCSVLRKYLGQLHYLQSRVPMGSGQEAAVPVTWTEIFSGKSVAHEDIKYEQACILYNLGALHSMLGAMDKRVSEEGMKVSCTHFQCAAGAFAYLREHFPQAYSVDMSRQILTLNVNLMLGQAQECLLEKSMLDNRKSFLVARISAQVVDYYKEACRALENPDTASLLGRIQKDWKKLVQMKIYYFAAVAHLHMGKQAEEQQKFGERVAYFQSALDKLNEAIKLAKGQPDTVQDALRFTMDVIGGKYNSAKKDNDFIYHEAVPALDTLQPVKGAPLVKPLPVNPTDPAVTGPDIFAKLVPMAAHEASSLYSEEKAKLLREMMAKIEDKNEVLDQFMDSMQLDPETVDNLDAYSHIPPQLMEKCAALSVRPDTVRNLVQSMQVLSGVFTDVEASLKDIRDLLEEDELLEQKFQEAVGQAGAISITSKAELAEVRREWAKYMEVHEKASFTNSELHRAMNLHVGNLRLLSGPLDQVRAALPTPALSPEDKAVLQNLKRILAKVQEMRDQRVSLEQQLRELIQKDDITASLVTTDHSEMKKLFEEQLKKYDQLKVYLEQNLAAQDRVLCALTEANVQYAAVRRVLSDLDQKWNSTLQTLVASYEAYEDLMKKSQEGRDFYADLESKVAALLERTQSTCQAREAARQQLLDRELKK


Each molecule was assayed against T1, HD-PTPBro1-CC (assay: Yeast two-hybrid interaction with HD-PTPBro1-CC). Details: Matchmaker Gold, each triplicate experiment repeated at least three times.
Type: binding
Description: HD-PTPBro1-CC, HD-PTPBro1-CC F678D, and AlixBro1-V cloned into pGBKT7 were used as described previously ([Stefani et al., 2011]). UBAP1 (122–308) was cloned into pGADT7. Further deletion and missense mutations in UBAP1 as indicated were generated by standard PCR-based mutagenesis. Interactions were tested using the Matchmaker Gold system (Clontech) as described previously ([Stefani et al., 2011]) Each triplicate experiment was repeated at least three times.

Molecule	Y2H binding to HD-PTP
residues 260–269: minimal region of UBAP1 for effective binding to HD-PTP (VSNIKSLSFP; UniProt Q9NZ09 260-269, looked up, fragment)	minimal region for effective binding
F268S: F268S mutation in the FPXL motif of UBAP1, Y2H fragment (protein, UniProt Q9NZ09 1-502, looked up, variant F268S) Ubiquitin-associated protein 1: MASKKLGADFHGTFSYLDDVPFKTGDKFKTPAKVGLPIGFSLPDCLQVVREVQYDFSLEKKTIEWAEEIKKIEEAEREAECKIAEAEAKVNSKSGPEGDSKMSFSKTHSTATMPPPINPILASLQHNSILTPTRVSSSATKQKVLSPPHIKADFNLADFECEEDPFDNLELKTIDEKEELRNILVGTTGPIMAQLLDNNLPRGGSGSVLQDEEVLASLERATLDFKPLHKPNGFITLPQLGNCEKMSLSSKVSLPPIPAVSNIKSLSSPKLDSDDSNQKTAKLASTFHSTSCLRNGTFQNSLKPSTQSSASELNGHHTLGLSALNLDSGTEMPALTSSQMPSLSVLSVCTEESSPPNTGPTVTPPNFSVSQVPNMPSCPQAYSELQMLSPSERQCVETVVNMGYSYECVLRAMKKKGENIEQILDYLFAHGQLCEKGFDPLLVEEALEMHQCSEEKMMEFLQLMSKFKEMGFELKDIKEVLLLHNNDQDNALEDLMARAGAS	abolished binding
L271A: L271A mutation in UBAP1, Y2H fragment (protein, UniProt Q9NZ09 1-502, looked up, variant L271A) Ubiquitin-associated protein 1: MASKKLGADFHGTFSYLDDVPFKTGDKFKTPAKVGLPIGFSLPDCLQVVREVQYDFSLEKKTIEWAEEIKKIEEAEREAECKIAEAEAKVNSKSGPEGDSKMSFSKTHSTATMPPPINPILASLQHNSILTPTRVSSSATKQKVLSPPHIKADFNLADFECEEDPFDNLELKTIDEKEELRNILVGTTGPIMAQLLDNNLPRGGSGSVLQDEEVLASLERATLDFKPLHKPNGFITLPQLGNCEKMSLSSKVSLPPIPAVSNIKSLSFPKADSDDSNQKTAKLASTFHSTSCLRNGTFQNSLKPSTQSSASELNGHHTLGLSALNLDSGTEMPALTSSQMPSLSVLSVCTEESSPPNTGPTVTPPNFSVSQVPNMPSCPQAYSELQMLSPSERQCVETVVNMGYSYECVLRAMKKKGENIEQILDYLFAHGQLCEKGFDPLLVEEALEMHQCSEEKMMEFLQLMSKFKEMGFELKDIKEVLLLHNNDQDNALEDLMARAGAS	no obvious effect on binding; also recorded: weaker phenotype
P269A: P269A mutation in UBAP1, Y2H fragment (protein, UniProt Q9NZ09 1-502, looked up, variant P269A) Ubiquitin-associated protein 1: MASKKLGADFHGTFSYLDDVPFKTGDKFKTPAKVGLPIGFSLPDCLQVVREVQYDFSLEKKTIEWAEEIKKIEEAEREAECKIAEAEAKVNSKSGPEGDSKMSFSKTHSTATMPPPINPILASLQHNSILTPTRVSSSATKQKVLSPPHIKADFNLADFECEEDPFDNLELKTIDEKEELRNILVGTTGPIMAQLLDNNLPRGGSGSVLQDEEVLASLERATLDFKPLHKPNGFITLPQLGNCEKMSLSSKVSLPPIPAVSNIKSLSFAKLDSDDSNQKTAKLASTFHSTSCLRNGTFQNSLKPSTQSSASELNGHHTLGLSALNLDSGTEMPALTSSQMPSLSVLSVCTEESSPPNTGPTVTPPNFSVSQVPNMPSCPQAYSELQMLSPSERQCVETVVNMGYSYECVLRAMKKKGENIEQILDYLFAHGQLCEKGFDPLLVEEALEMHQCSEEKMMEFLQLMSKFKEMGFELKDIKEVLLLHNNDQDNALEDLMARAGAS	no obvious effect on binding; also recorded: weaker phenotype
